One block for each binder: values may come before it.
Legend:
[1] = target: T1, Cynomolgus monkey full-length B7H3 on transfected FlpinCHO cells (cynomolgus monkey); test: FACS on cynomolgus monkey B7H3-transfected FlpinCHO cell pool
T1 construct: whole, on cells; also called W3XX088-FlpinCHO.cProl.pool
Protocol: FACS was used to detect the binding of antibodies to cynomolgus monkey B7H3. FlpinCHO cells were transfected with cynomolgus monkey B7H3 (W3XX088-FlpinCHO.cProl.pool) (1×10⁵ cells/well), and the transfected cells were incubated with various concentrations of antibodies (3.16-fold serially diluted with 1×DPBS/1% BSA from 50 nM to 0.0005 nM) in a volume of 100 μL/well in a refrigerator set to 4° C. for 1 h. Anti-human B7H3 reference antibody enoblituzumab (MacroGeneics) was used as a positive control. Human IgG1 isotype antibody was used as a negative control. After washing the cells with 1×DPBS/1% BSA, Alexa 647 goat anti-human antibody (diluted in a 1:500 ratio in 1×DPBS/1% BSA) was added. The cells were incubated in a refrigerator set to 4° C. for 0.5 h in the dark. The mean fluorescence intensity (MFI) of the cells was measured by a flow cytometry and analyzed by FlowJo. EC₅₀ values were calculated by four-parameter non-linear regression analysis using GraphPad Prism 7 software.

[2] = target: T2, Human BTNL2 protein, His Tag (human, UniProt Q9UIR0-1 24-455, limits assumed); test: ELISA, protein immobilized on plate, serially diluted antibody
T2 construct: Bought protein; also called AtaGenix ATMP02212HU; not shown: His tag
T2 sequence (looked up): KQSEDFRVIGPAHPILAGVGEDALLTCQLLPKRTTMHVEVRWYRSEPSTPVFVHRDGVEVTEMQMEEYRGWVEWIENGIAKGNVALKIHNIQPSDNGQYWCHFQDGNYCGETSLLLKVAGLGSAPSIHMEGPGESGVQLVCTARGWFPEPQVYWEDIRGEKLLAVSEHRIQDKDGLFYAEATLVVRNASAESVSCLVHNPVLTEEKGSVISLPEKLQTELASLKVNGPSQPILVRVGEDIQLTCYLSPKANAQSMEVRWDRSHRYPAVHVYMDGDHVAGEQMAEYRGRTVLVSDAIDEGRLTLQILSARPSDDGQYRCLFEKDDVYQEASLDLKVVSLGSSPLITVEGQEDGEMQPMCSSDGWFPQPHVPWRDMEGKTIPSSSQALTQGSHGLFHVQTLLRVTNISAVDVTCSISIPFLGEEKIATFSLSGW
Protocol: (§1) Human PD-L1 protein (see the table above), human B7-H2 protein, human B7-H3 protein, human B7-H4 protein, human B7-H5 protein, human B7-H6 protein, human B7-1 protein, human B7-2 protein, human PD-L2 protein, human B7-H7 protein, and human BTNL2 protein were separately immobilized on 96-well plates by incubation at 4° C. overnight. The 96-well plates were then blocked by incubation with 1% BSA in PBS at 37° C. for 1 h. After blocking, the 96-well plates were washed 3 times with PBST (PBS containing 0.05% Tween 20). […] After incubation, the 96-well plates were washed 3 times with PBST, incubated with a secondary antibody (see the table above) in binding buffer at 37° C. for 1 h, and then washed again. TMB was added for color development, and the reaction was stopped by 1 M H₂SO₄.

[3] = target: T3, Human B7-H3(4Ig), His Tag (human, UniProt Q5ZPR3 29-461); test: ELISA, plate coated with 2 µg/mL recombinant human B7-H3 (4Ig), serially diluted antibody, HRP anti-human secondary antibody, OD450
T3 construct: also called recombinant human B7H3 antigen; human B7-H3 protein; not shown: His tag
T3 sequence (looked up): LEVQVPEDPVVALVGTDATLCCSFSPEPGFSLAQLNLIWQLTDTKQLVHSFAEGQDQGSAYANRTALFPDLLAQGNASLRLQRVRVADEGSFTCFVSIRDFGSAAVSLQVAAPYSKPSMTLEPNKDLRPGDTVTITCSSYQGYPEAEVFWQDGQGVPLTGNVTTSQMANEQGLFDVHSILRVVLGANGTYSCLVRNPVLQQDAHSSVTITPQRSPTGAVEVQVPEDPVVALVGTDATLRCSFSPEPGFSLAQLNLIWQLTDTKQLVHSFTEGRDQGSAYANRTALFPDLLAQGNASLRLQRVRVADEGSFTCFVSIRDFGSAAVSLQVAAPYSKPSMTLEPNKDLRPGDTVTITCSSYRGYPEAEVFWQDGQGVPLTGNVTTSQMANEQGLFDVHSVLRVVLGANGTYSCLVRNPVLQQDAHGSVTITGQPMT
Protocol: A 96-well ELISA plate was coated with 2 μg/mL recombinant human B7H3 antigen (see the table above) at 30 μL/well and kept at 4° C. overnight. The following day, the well plate was washed 3 times with PBST and then blocked with 5% skim milk for 2 h. […] The plate was then washed 3 times with PBST, and an HRP-labeled anti-human secondary antibody diluted in a 1:5000 ratio was then added at 100 μL/well and incubated for 1 h. After the incubation was complete, the plate was washed six times with PBST, and TMB (SurModics, TMBS-1000-01) was added for color development. Based on the results of the color development, the reaction was stopped by adding 2M HCl, and the plate was read by a microplate reader (Molecular Devices, SpecterMax 190) at OD450.

[4] = target: T2, Human BTNL2 protein, His Tag; test: ELISA, protein immobilized on plate, serially diluted antibody-drug conjugate
Protocol: as §1

B1: W301088-1.145.16-xIgG1KV320 (antibody, V domains shown)
VH: DVQLQESGPGLVKPSQSLSLTCTVTDYSITGDYAWNWIRQFPGNKLEWMGYISYSGSTSYNPSLQSRISITRDTSKNQFFLQLNSVTSEDTATYFCARSLGRRWYFVVWGAGTTVTVSA
VL: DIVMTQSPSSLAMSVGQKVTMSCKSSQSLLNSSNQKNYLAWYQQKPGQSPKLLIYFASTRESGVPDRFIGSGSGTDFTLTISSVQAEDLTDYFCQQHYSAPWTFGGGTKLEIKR
- EC50 [1]: 5.25 nM

B2: Enoblituzumab (MacroGenics) (antibody, V domains shown)
VH: EVQLVESGGGLVQPGGSLRLSCAASGFTFSSFGMHWVRQAPGKGLEWVAYISSDSSAIYYADTVKGRFTISRDNAKNSLYLQMNSLRDEDTAVYYCGRGRENIYYGSRLDYWGQGTTVTVSS
VL: DIQLTQSPSFLSASVGDRVTITCKASQNVDTNVAWYQQKPGKAPKALIYSASYRYSGVPSRFSGSGSGTDFTLTISSLQPEDFATYYCQQYNNYPFTFGQGTKLEIKR
- EC50 [1]: 9.58 nM

Other lines, results leading:

- binding result [2]: no binding
- EC50 (read off the curve) [3]: ~0.1 mg/L
- EC50 [1]: 4.68 nM
B3: W301088-1.145.16-z3-p1-uIgG1KV320 (antibody, V domains shown)
VH: QVQLQESGPGLVKPSQTLSLTCTVTDYSITGDYAWNWIRQHPGKGLEWIGYISYSGSTSYNPSLQSRVTISRDTSKNQFSLKLSSVTAADTAVYFCARSLGRRWYFVVWGQGTTVTVSS
VL: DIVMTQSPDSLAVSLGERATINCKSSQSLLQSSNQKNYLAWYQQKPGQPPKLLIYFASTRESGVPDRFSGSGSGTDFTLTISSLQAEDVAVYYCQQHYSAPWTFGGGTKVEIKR
notes: Humanized, PTM-removed (VL N027dQ) antibody; human IgG1 LALA, kappa; also called WBP301088; W301088-z3-p1

- binding result [4]: no binding
B4: Antibody-drug conjugate WBP301088-X2 (DAR6) (antibody, human IgG1, kappa, L234A L235A, V domains shown)
VH: B3 VH
VL: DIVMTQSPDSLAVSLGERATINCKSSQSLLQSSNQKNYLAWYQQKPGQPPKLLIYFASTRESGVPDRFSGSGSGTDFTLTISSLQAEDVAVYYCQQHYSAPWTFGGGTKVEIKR
modifications: linker-payload X2 conjugated after TCEP reduction; drug loading (DAR) 5.68 per antibody; sites not stated
